Experimental data: publication PMC8189181

Target: Fzd1-mApple
Assay: quasi-PIE fluorescence cross-correlation spectroscopy (FCCS); live zebrafish embryos co-expressing the EGFP- and mApple-tagged proteins; dorsal cerebellum and midbrain hindbrain boundary; room temperature; FLCS-based statistical filtering of spectral cross talk; apparent Kd

In the case of Wnt3C80A-EGFP (ligand), the Kd is reported as 313 nM.
